The text below walks through data of publication PMC4893198.

For one experiment, the target named is OST-NLS-mCherry-NRF2 (UniProt Q16236). In words: pull-down.
The next experiment addresses OST-progerin (human) (UniProt P02545). Nature of the experiment: pull-down.

“HA-progerin (from UniProt P02545-6 1-614) (natural protein)” gave an interaction relative to WT lamin A with OST-NLS-mCherry-NRF2 of 248%.

B1: FLAG-NLS-NRF2 (natural protein)
chain: MMDLELPPPGLPSQQDMDLIDILWRQDIDLGVSREVFDFSQRRKEYELEKQKKLEKERQEQLQKEQEKAFFAQLQLDEETGEFLPIQPAQHIQSETSGSANYSQVAHIPKSDALYFDDCMQLLAQTFPFVDDNEVSSATFQSLVPDIPGHIESPVFIATNQAQSPETSVAQVAPVDLDGMQQDIEQVWEELLSIPELQCLNIENDKLVETTMVPSPEAKLTEVDNYHFYSSIPSMEKEVGNCSPHFLNAFEDSFSSILSTEDPNQLTVNSLNSDATVNTDFGDEFYSAFIAEPSISNSMPSPATLSHSLSELLNGPIDVSDLSLCKAFNQNHPESTAEFNDSDSGISLNTSPSVASPEHSVESSSYGDTLLGLSDSEVEELDSAPGSVKQNGPKTPVHSSGDMVQPLSPSQGQSTHVHDAQCENTPEKELPVSPGHRKTPFTKDKHSSRLEAHLTRDELRAKALHIPFPVEKIINLPVVDFNEMMSKEQFNEAQLALIRDIRRRGKNKVAAQNCRKRKLENIVELEQDLDHLKDEKEKLLKEKGENDKSLHLLKKQLSTLYLEVFSMLRDEDGKPYSPSEYSLQQTRDGNVFLVPKSKKPDVKKN
In the experiment with OST-progerin (human), B1 came in with an NRF2 pulled down relative to OST-lamin A of 142%.

B2: recombinant HIS6x-NRF2 (natural protein)
chain: B1 chain
Take B2: the NRF2 bound relative to OST-lamin A with OST-progerin (human) amounted to 275%.
